{
  "source": "paper PMC4509486",
  "test_in_all_cases": "cross-linking; copper-phenanthroline (1 mM CuSO4/3 mM 1,10-phenanthroline) disulfide cross-linking of purified protein (1 mg/ml) in 20 mM HEPES pH 7.4, 150 mM NaCl, 1 mM TCEP, on ice 15 min; non-reducing SDS-PAGE; efficiency = dimer/(monomer + dimer)",
  "key": {"[1]": {"target": "GB1-TM-CC1 monocysteine variant G226C (not stated (human or mouse cDNA cloned)) (UniProt Q13586)"}, "[2]": {"target": "GB1-TM-CC1 monocysteine variant A230C (not stated (human or mouse cDNA cloned)) (UniProt Q13586)"}, "[3]": {"target": "GB1-TM-CC1 monocysteine variant I222C (not stated (human or mouse cDNA cloned)) (UniProt Q13586)"}},
  "data": [
    {"substance": "GB1-TM-CC1 monocysteine variant G226C (from UniProt Q13586 209-310) (domain or fragment)", "values": [
      {"measurement": "disulfide cross-linking efficiency", "setting": "[1]", "result": "> 70", "unit": "%"}
    ]},
    {"substance": "GB1-TM-CC1 monocysteine variant A230C (from UniProt Q13586 209-310) (domain or fragment)", "values": [
      {"measurement": "disulfide cross-linking efficiency", "setting": "[2]", "result": "> 70", "unit": "%"}
    ]},
    {"substance": "GB1-TM-CC1 monocysteine variant I222C (from UniProt Q13586 209-310) (domain or fragment)", "values": [
      {"measurement": "disulfide cross-linking efficiency", "setting": "[3]", "result": "> 70", "unit": "%"}
    ]}
  ]
}
